Data: patent US20120121587A1 (Chugai, published 2012)
Where two headings read alike, the source gives them in different places.

T1: Human recombinant AXL-FND1 (GST-FND1), from pET-41b(+) (human, UniProt P30530 225-331)
T1 construct: Expressed in E. coli, purified on Glutathione Sepharose; analyte in all Biacore measurements; GST put first by the usual layout of pET-41; not shown: GST-tag of vector pET-41b(+) (Novagen)
T1 sequence (looked up): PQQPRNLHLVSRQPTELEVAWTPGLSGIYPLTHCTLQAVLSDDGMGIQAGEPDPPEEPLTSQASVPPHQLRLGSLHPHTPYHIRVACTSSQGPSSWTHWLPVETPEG


Key:
Test in all cases: SPR (Biacore T100): antibody captured on Protein A, GST-FND1 as analyte
[1] = molecular target: T1, Human recombinant AXL-FND1 (GST-FND1), …
Experimental: (§1) Kinetic analyses of antigen-antibody reactions of humanized AXL antibodies were carried out using Biacore T100 (BIACORE). rec-Protein A (Zymed) (hereinafter, Protein A) was immobilized onto a sensor chip, various antibodies were bound to it, then an antigen as the analyte was flushed to measure the antibody-antigen interaction. Human recombinant AXL-FND1 (prepared in 2-2; hereinafter referred to as GST-FND1) prepared at various concentrations was used as the antigen. From the sensorgrams obtained through the measurements, kinetic parameters, namely binding rate constant kₐ (1/Ms) and dissociation rate constant kd (1/s), were calculated, and Kd (M) was calculated based on these values. Biacore T100 Evaluation Software (BIACORE) was used to calculate each of the parameters.
(§2) The sensor chips were produced by immobilizing approximately 3000 RU of Protein A onto CM5 (BIACORE) by amine coupling. Using the produced sensor chip, kinetic analyses were carried out on the interaction between the Protein A-bound antibodies and GST-FND1. HBS-EP+ was used as the running buffer, and the flow rate was set to 30 μL/min. Each antibody was prepared at 1 μg/mL using the running buffer, and was subjected to binding with Protein A for two minutes. GST-FND1 as the analyte was prepared at 0.5 and 2.0 μg/mL using HBS-EP+. […]

[2] = molecular target: T1, Human recombinant AXL-FND1 (GST-FND1), …; remark: listed apart in the source
Experimental: as §1, §2

[3] = molecular target: T1, Human recombinant AXL-FND1 (GST-FND1), …; remark: listed apart in the source
Method in brief: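 Antibodies (1 μg/mL) were captured for 2 min on a Protein A CM5 chip. GST-FND1 (0.5 and 2.0 μg/mL) in HBS-EP+ was flowed at 30 μL/min with 2 min association and 2 min dissociation at 25° C. ka and kd were fitted from sensorgrams and Kd was calculated from them.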

[4] = molecular target: T1, Human recombinant AXL-FND1 (GST-FND1), …; remark: listed apart in the source
Experimental: as §1
The sensor chips were produced by immobilizing approximately 3000 RU of Protein A onto CM5 (BIACORE) by amine coupling. Using the produced sensor chip, kinetic analyses were carried out on the interaction between the Protein A-bound antibodies and GST-FND1. HBS-EP+ was used as the running buffer, and the flow rate was set to 30 μL/min. Each antibody was prepared at 1 μg/mL using the running buffer, and was subjected to binding with Protein A for two minutes. GST-FND1 as the analyte was prepared at 0.5 and 2.0 μg/mL using HBS-EP+. Measurements were carried out by first binding the various humanized AXL antibodies, chimeric AXL antibodies, or mouse AXL antibodies of interest to Protein A, then applying an analyte solution to them for a two-minute interaction, and then switching to HBS-EP+ (BIACORE) for a two-minute measurement of the dissociation phase. After completion of measurement of the dissociation phase, 30 μL of 10 mM glycine-HCl (pH 2.0) was used for washing to regenerate the sensor chip. Such binding, dissociation, and regeneration were defined as one cycle of analysis. All experiments were performed at 25° C.
Affinity measurements on the produced variants were carried out by the method of Example 2.

Kd [1] [nM]	Kd [2] [nM]	Kd [3] [nM]	Kd [4] [nM]	Binder
1.59				chH/L0 (antibody, V domains shown, not shown: a dimerising Fc or GST, Chimeric H chain with humanized L chain) VH: QVQLKQSGPGLVAPSQSLSITCTVSGLSLTSFGVDWVRQSPGKGLEWLGVIWGGGSTNYNSALKSRLSISKDNSKSQVFLKMNSLQTDDTAMYYCAGEGSKYGAWFAYWGQGTLVTVSA VL: DVVMTQSPLSLPVTLGQPASISCRSSQNIVHTNGNTYLEWYQQKPGKAPELLIYKVSNRFSGVPDRFSGSGSGTDFTLKISRVEAEDVGVYYCFQGSHIPFTFGQGTKLEIKR
	4.44			H0/L0 (antibody, human IgG1, kappa, V domains shown, Humanized Ax225; IgG1 constant region without G446 and K447 (EU), natural human kappa) VH: QVTLKESGPVLVKPTETLTLTCTVSGFSLSSFGVDWVRQAPGKGLEWMGVIWGGGSTNYNSALKSRLTISKDTSKSQVVLTMTNMDPVDTATYYCAGEGSKYGAWFAYWGQGTLVTVSS VL: DVVMTQSPLSLPVTLGQPASISCRSSQNIVHTNGNTYLEWYQQKPGKAPELLIYKVSNRFSGVPDRFSGSGSGTDFTLKISRVEAEDVGVYYCFQGSHIPFTFGQGTKLEIKR
12.3				H6/L0 (antibody, V domains shown, not shown: a dimerising Fc or GST, H6 is chH with arginine for glycine at Kabat position 94) VH: QVQLKQSGPGLVAPSQSLSITCTVSGLSLTSFGVDWVRQSPGKGLEWLGVIWGGGSTNYNSALKSRLSISKDNSKSQVFLKMNSLQTDDTAMYYCAREGSKYGAWFAYWGQGTLVTVSA VL: DVVMTQSPLSLPVTLGQPASISCRSSQNIVHTNGNTYLEWYQQKPGKAPELLIYKVSNRFSGVPDRFSGSGSGTDFTLKISRVEAEDVGVYYCFQGSHIPFTFGQGTKLEIKR
	3.58	3.58	3.58	H9/L0 (antibody, human IgG1, kappa, also called humanized Ax225 antibody (H9/L0)) heavy: not shown light: DVVMTQSPLSLPVTLGQPASISCRSSQNIVHTNGNTYLEWYQQKPGKAPELLIYKVSNRFSGVPDRFSGSGSGTDFTLKISRVEAEDVGVYYCFQGSHIPFTFGQGTKLEIKRTVAAPSVFIFPPSDEQLKSGTASVVCLLNNFYPREAKVQWKVDNALQSGNSQESVTEQDSKDSTYSLSSTLTLSKADYEKHKVYACEVTHQGLSSPVTKSFNRGEC
